Measurements: the DeepSol protein solubility set

Assay: soluble on expression in E. coli; label from the status in PepcDB or PDB records

Row | Sequence | soluble on expression in E. coli
1 | MSLTFTEQAKDQAQASWQGSFQHPFITELHEGTLSPTIFRYYLIQDHYYLKHFSQLYRLIAAQTQQPRLKKLLLTNAENLALGELAIRETFFEELAITEEEVAATPIAPTAYHYVSHMYRQLIEGTPKTAAASMLPCSWLYQEIGAQLVKQHSPEPLYQRWIETYAGEEAYQHVQEERQLLDQLYEESSPQEQAAMITAFVISSEMEYAFWEMAYTHETWIGEGGSHHHHHH | soluble
2 | MGSDKIHHHHHHMPTLLMITPENSEINKFKAHQLNNFTQLTMPYLAGFVPEEYSIRLLDEYTEPILFEKVDLVAITVNTPNAPHVYSVSKRFRELGAWVALGGPHVTLNPEEAACHGDTIFVGEAEETWPEFLKDFLSGNMQKVYTSLQVPSLDGLPIPRRDLIVGHRFTSGAVFASRGCPHHCSYCSLKKIYHNKLRTRPVDEVIKDIGSMPNKYFVFWDDNFFADPVYTKALLKELARLNKRWAAQVTAYSCEDEELLSLAKSAGCLYLFLGLESFSEQGLRDANKNFNKIEEYGKVVNKLHRHGISIQAGIVFGFDSDTLDVFETTLKACNKIGVDGVTASILTPFPGTSIYEQYKKEGRLLDVDWDHYNGKTRVAYVPKRMNCKELLNGYNEFRGKFHSWRSIVKRISKSRVNIFYSLAMNYGYKRAYRNFTRLGIGERSDESLGQRMEQHLRNWPR | not soluble
3 | MQALAAMPAPVAASVRIVLTDIDDTLTTEGRLPAGAYAALERLEQAGIVVVPITGRPAGWCDHIARMWPVRAVVGENGAFYYAYDRSARRMNAHYWADAATRAANRQALQAIRERVLREVPGTAVASDQDYRVADLAIDFCEDVPALPDSAVGRIVEIFHEAGAQAKVSSIHVNGWFGDYDKLTMTRTLFEREFGLSIDSALQHTLFIGDSPNDEPMFKFFPISVGVANIQSQLHRIQHRPAFVAAARGGDGFVEMAERLLANRG | not soluble
4 | MSSKSTKRAKIEDPKDNVFMVEKVLDKRTGKAGRDEFLIQWQGFPESDSSWEPRENLQCVEMLDEFEREFSKREKPIRKRHSQKPEPSEDQADPEEDKDEKKETNQNDKFSLEGKQLKCIVGLTKGPGELHFLCKFSDDTARLLPAKEVNSRYRPFVDAYGEFLKKKMERRHKRISEGKKKRSIEEDDADDEWPEMPPGHRILTTEEHELQRRKESKISQDVEMTEAFQQTAADMLNDMHMAANGDLLSSFPQDFLEDSGDGEVHEAAILSVFDDNSNSPPPCPIVVDTVPDDDDSLLFPRNS | soluble
5 | GPGSMAALRYLLAPRRALVTPFLRSVTCVSSGGIFSSQRPHTFPVLWHAVRTHSNDSGERSKPLTLHVQLPCGTMRTLTAYEGQTLLDVAMEHGLPIEGACGGSCACSTCHVYLENDEAMELFDEATDEENDMLDMAFFPQSTSRLGCQLTLRQQKHDGLKISLPKATRNMYVDGHTITPHH | not soluble
6 | MQLDEDDMIINIFWADDRSISDYNLFGDVICFEQLIRPMHMIDPLLICRGQSSQANSCVW | not soluble
7 | MAADISESSGADCKGDPRNSAKLDADYPLRVLYCGVCSLPTEYCEYMPDVAKCRQWLEKNFPNEFAKLTVENSPKQEAGISEGQGTAGEEEEKKKQKRGGRGQIKQKKKTVPQKVTIAKIPRAKKKYVTRVCGLATFEIDLKEAQRFFAQKFSCGASVTGEDEIIIQGDFTDDIIDVIQEKWPEVDDDSIEDLGEVKK | not soluble
8 | MADVADPEVESRPQRFPKNIMITGANRGIGFGLVKHFLEYDGIELLIATCRNPEKADELNALKNDRRLHVIALNVDDDESIKKVFDEVSSLVSSNGLNMLINNAGILLPYEVDGPKICRKTMMKQLETNSVSVAILTQIFLPLIKTAASAAEGDEASIDRASIINISSTMASIEMNNGCFDGPMTAYRMSKSALNAFARQSFMELSKYHILVTSFCPGWVRTDMGGDNADLDVNESTKTLSANILRLDNRNNGLYFDRFLHPIPN | not soluble
9 | MRGSHHHHHHGSENLYFQSGAMEIREQLNLGGIVNAQNAQLSNCSDGAAQLESCGTAPDLKGITGWLNTPGNKPIDLKSLRGKVVLIDFWAYSCINCQRAIPHVVGWYQAYKDSGLAVIGVHTPEYAFEKVPGNVAKGAANLGISYPIALDNNYATWTNYRNRYWPAEYLIDATGTVRHIKFGEGDYNVTETLVRQLLNDAKPGVKLPQPSSTTTPDLTPRAALTPETYFGVGKVVNYGGGGAYDEGSAVFDYPPSLAANSFALRGRWALDYQGATSDGNDAAIKLNYHAKDVYIVVGGTGTLTVVRDGKPATLPISGPPTTHQVVAGYRLASETLEVRPSKGLQVFSFTYG | soluble
10 | GPGSMSYHGPNREGLGEDLEEAEEAFIDLEDPNIEILDEAALPEEDGDDASDVVDNHAGMDVQDRGNEEEGEGLHLGVEVEDLNAAPDYEPEHDDAFATFVAPAKKPLHAIAVHPQNERIFAVGGEGEEVYILEMDHAGKEPALKATLTGHTDTVSLLSFSPNGQWLASGSLDSSVAVWSTETWERKHTLGDLYGEIMTLLWHPSSLILAAGADDAQAAMWNVVKGTLIMYFVGHRGAVTCTAWSPDVKKLVTGSSDGTVAVFNPKTGDQELCISKDLSPDNAGITALQFVNADQCVVGCEDGTLHVISLRSGKVATHFEDLHEQAIESLAINRSSLLLLTASCDCRVIVWNVADFSPRATVEVGESVIPALWSHSNLIAAGCSDGNIRVWDGRSSAQDPLALLMGHRRMVLGLVTTSTVLASTSDDGTAKFYRFAETFR | soluble
11 | MTKLHDISEHEKAIDFSIYLDSLPQYQHLASQDESHRHRALGIYSDFLSEENKSKRAALQNYKNYISLTERDPNQLAYPELQETRIDAVFSPDFMGSFAKSNGRHEETPMDGPGGYDMRSYLPYQTAPSGSLGNISTASSSCSSPPGTPAPSGKGRSPQAGGKMTSSGKGKKRLDKDSDEYRQRRERNNLAVRKSRDKAKMRNLETQHKVLELAAENDRLQKRVEQLSRELATLRNLLSATGQC | not soluble
12 | MKIAVAGSGYVGLSLGVLLSLQNEVTIVDILPSKVDKINNGLSPIQDEYIEYYLKSKQLSIKATLDSKAAYKEAELVIIATPTNYNSRINYFDTQHVETVIKEVLSVNSHATLIIKSTIPIGFITEMRQKFQTDRIIFSPEFLRESKALYDNLYPSRIIVSCEENDSPKVKADAEKFALLLKSAAKKNNVPVLIMGASEAEAVKLFANTYLALRVAYFNELDTYAESRKLNSHMIIQGISYDDRIGMHYNNPSFGYGGYCLPKDTKQLLANYNNIPQTLIEAIVSSNNVRKSYIAKQIINVLKEQESPVKVVGVYRLIMKSNSDNFRESAIKDVIDILKSKDIKIIIYEPMLNKLESEDQSVLVNDLENFKKQANIIVTNRYDNELQDVKNKVYSRDIFGRD | soluble
13 | MEWYMGKYIRPLSDAVFTIASDDLWIESLAIQQLHTTANLPNMQRVVGMPDLHPGRGYPIGAAFFSVGRFYPARRRGNGAGNRNGPLL | not soluble
14 | MKYKSGIFAAIHETMQGLHDIGAIDKKTMRGFDKSCLTEIKPLSGGDIKAIREKEALSQAAFAIYLNVGKNHVSAWERGVKKPSGAALKLLTIVKNKGIEAIA | not soluble
15 | MSNLIELALRNAALDRTKLLSQVQKIEFLNGYDPRFVEGLISLEMIGDIDEYVASLMYVKMTDKYTQEEKEQLTDTILTINNDRLISCQYRFPQLYQKLMQDQFLSTFFSSSHLLPNIAPGTNNQSYETVSTNNKMKMESAKLYGHYEYYQCVVALITQIDGSRYFYHLNPNRIFGDYMGSAPLKLSGSELKDVKDITFILHPRSMVDYREFQRLQERNIVFKTVMLPVGAKSVSLSYDTDKDVLTVNNLEAGQTVTYNNLLQTPQYNRYQYTPEQYFMTQLYRGQTWAEALGEALDKYIVTRQEGATWWDLKPLFFNRKTTKNNMIAAARIKKEIEAGATSFDFTGVSRNGLLNQLLTTAVDYQLEYQRGLQNGVLSAEDLTTSAALR | not soluble
16 | MGSDKIHHHHHHAGELRERVYLQTDKQFYLSGELVWMKFIATDLDQRLSDVSKVGYVELLDSASAVVQARLVLEKGVGDGCLQLPSTLPTGNYRLVAYTRYMRNEGEEVFFEKPLAVVNTFVTNETLLTDTLLPAYSFTRREDPVSVSPDRMTYDTRSGGEIRINGLPPDLQTLSVSIAGIDLYKPSARSGIVDWKQSMPTTGSSPADRKFLAEYEGPILTGKVIDLSTGEPSSKEAVRPLLGFSGGEIRLFGGQLGPAGEVTFFTRHISGTHEIVTVALSPSSSRYRVDIESPYATHPEKELPALRLNPAWQDELVKRSVGLQVLHAYRSDSLVREKAEKPWFQWQPDWSYLLDEYTRFTTMEEVVIEFIPGLRFRKMDGVRRLAVLTEERIGYTIGNSLVLLDGIPITDHEIIFKYDPLKIRKIDVYKGKYVFGGQIFDGIASFSSYEHNYPGLVVDNSTQFFDYEGTQAQRIFYMPAYRTEAEKRSPVPDFRHTLLWRPDIRTNGESSISIPFTTSDLTGDFTITIEGLTQTGEALYATEQFQVK | not soluble
17 | MSTFSFIIVNNEQVRIHDIQGKSHMSPYNGKKVNNVEGVVTALDKNGFYIEDNQPDNDPATSEGMYVYKKDANVAVGDLIQVDGVVEEYVGPGYAERFETDLTTTEIKASRVVVIAKDQSLPAPIVLGENGVKIPDQIIDNDAFGLFDPNEDAIDFYESIEGMRVTMPTPKVIAPQKNGNLYVTVKNGGDKIVTQYGTPLLDENQLNPERLSVKVPRDYVAKVGDTFTGDITGVVGYDYGSFRISPITELPAVVDGGFKQVGANIQPRLDKLTVATYNIENFSANKKETTDEKVKALAYSIKYNLKMPDIIGVEEMQDNNGLEHHHHHH | soluble
18 | MGSDKIHHHHHHMNNIIATILKYAGLEGKAVIPLKGATSSYVFRAGDSVFRIHTNPAWLEQEPDLVAHEVFALRATGRLGPDVENYQLTWEGEIPPWIQMTCLPGEVRLEPLNRAYLKQLAKTLVAIHQLPVPEARYQYAPYVTKRTVPFWAVQKEMWQRAVAEPPATSQQVRFIHRDFHPVNVLYESAEKYNVVDWINGCVGPIEADVAHCRLNLMLLESVEAADQFLAEYIAYSGFSYDRKWDLTAVFDFEPDTLNVYPGWKAYGKANISQGNVRERMENIVLKVYENDESGY | not soluble
19 | MGSDKIHHHHHHMTIELTPPPKKNPQKRSTSATRPPEARSRAALGLSAAAAEGRFALQVCAECQAVQYPPRDACAACIGTDLVWQDISPDGHLLAETTIQTSTKLFFRERAPWRMGSVKLTAGPVVLCHVHGDCTRGGPVKILNRLDKSGQAVLIAIPPERTEHMDDDPQLRAMSANPKHRRILITDAWNPNTPALAKALLEAGAATIFVGEAESWRPHPNRDTLAGMENVDILPLDVTDTASVQTLAGEIGGKTDILINNARFMRPGGVLARGDTGFARDEMEVNYLGLMRLAQAFGPGMCARMADGVNSAAAWVNILSAHALSNAPDYGCFSASNAAAYSLSQSLRGEFRSAGLRVMNVFVGPTDDDWYAPLPPPKVLPTGLARSVVDGLRDGLEDVWCGDIAKDMRDRWRRDAKVLEREMTFGSEGA | not soluble
20 | MGSDKIHHHHHHMHTEVQEYGLSLRWVRFIFAAKEILINMVYKVFLSLCIGLALSASAALHAQKAVSGHAPIQVETPARSSGQKHVLQLVTPKLETVRIGIIGLGMRGPGAVERFSKIPGTQIVALCDVLPERVKKTQEILVKAGLPEAAAYSGSEDAWKKLCEREDIDLVYIVTDWKTHAEMGVYAMEHGKHAAIEVPAAMTLEEIWKLIDTSERTRKHCIQLENCVYDFFELTTLNMAHQGVFGEILHAEGAYIHNLEDFWPYYWNNWRLDYNRKHRGDVYATHGMGPACQLLDIHRGDRMKTIVAMDTKAVNGPAYIKNKTGEVVADFQNGDQTTSLIRTEKGKTLLIQHNVMTPRPYSRKYQAVGTDGFADKYPLEMYCLRPAQVDSDIAPDHEKLNAHGPVSEEVKKALMEKYKHPIHRELEETAKKVGGHGGMDYIMDYRLIYCLRNGLPLDMDVYDLAEWCCLAELSRISIENGSAPVAIPDFTRGNWDKVKGYRHAMAE | not soluble
